In patent US20110045604A1 (UNIVERSITY OF CHICAGO, published 2011):
Blank lines part the entries; values can stand above or below the binder they belong to.

Target: T1, Erbin PDZ (UniProt Q96RT1 1321-1410, limits assumed)
T1 construct: domain: PDZ; Isolated PDZ domain without FN3; Expressed in E. coli from a pHFT2 derivative; also called wild-type PDZ domain; parent PDZ
Assay: SPR (BIAcore 2000); PDZ immobilised on Ni-NTA chip, SUMO-peptide fusion as analyte
Procedure: Affinity Measurements. SPR measurements were performed in 20 mM HEPES/NaOH buffer (pH 7.4), 150 mM NaCl, and 0.005% Tween 20 at 25° C. on a BIAcore 2000 instrument. The affinity clamp or the linker mutant was immobilized on a Ni-NTA chip to the level of approximate 300 RU, and different concentrations of SUMO-peptide fusion protein were injected. The kinetic data were analyzed using the one-to-one binding model in BIAEvaluation (BIAcore).

T1 sequence (Q96RT1 1321-1410 limits assumed): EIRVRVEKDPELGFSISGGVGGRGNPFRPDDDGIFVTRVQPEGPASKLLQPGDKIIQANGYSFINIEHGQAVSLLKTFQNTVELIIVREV

Kd: 6.3 µM
B1: SUMO-δ-catenin peptide fusion protein (peptide)
peptide: {yeast SUMO}-PASPDSWV-OH
modifications: not fully specified
notes: The methods say that SUMO-peptide fusion proteins were injected in SPR; also called C-terminus of δ-catenin; not shown: The yeast SUMO fusion partner N-terminal to the peptide, and any junction or tag residues

Kd: 2.2 µM
B2: SUMO-ARVCF peptide fusion protein (peptide)
chain: PQPVDSWV
notes: Analyte in SPR; also called wild-type ARVCF peptide; AVFCF peptide; not shown: yeast SUMO, fusion partner N-terminal to the peptide
